Results taken from patent US20220073599A1 (Hoffmann-La Roche, published 2022).

T1: human VEGFA-121 (human, UniProt P15692 181-395)
T1 construct: sources differ (in-house, R&D, Peprotech); also called hVEGF-A121
T1 sequence: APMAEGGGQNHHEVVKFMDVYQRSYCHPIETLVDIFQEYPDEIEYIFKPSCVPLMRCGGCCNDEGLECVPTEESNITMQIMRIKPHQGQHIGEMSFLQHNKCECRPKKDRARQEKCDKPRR

T2: human Ang2-RBD (human, UniProt O15123 275-496, limits assumed)
T2 construct: also called Human ANG2 (SPR); Angiopoietin 2-RBD
T2 sequence: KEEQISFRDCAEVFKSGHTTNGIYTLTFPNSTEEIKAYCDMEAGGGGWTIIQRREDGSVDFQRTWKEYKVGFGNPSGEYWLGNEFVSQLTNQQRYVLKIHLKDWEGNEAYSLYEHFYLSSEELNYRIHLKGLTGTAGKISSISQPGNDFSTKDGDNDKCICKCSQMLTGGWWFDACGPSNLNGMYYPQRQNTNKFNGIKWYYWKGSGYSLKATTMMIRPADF

T3: human Ang2-RBD-muFc (human, UniProt O15123 275-496, limits assumed)
T3 construct: also called Human ANG2 (KinExA); not shown: murine Fc (muFc)
T3 sequence: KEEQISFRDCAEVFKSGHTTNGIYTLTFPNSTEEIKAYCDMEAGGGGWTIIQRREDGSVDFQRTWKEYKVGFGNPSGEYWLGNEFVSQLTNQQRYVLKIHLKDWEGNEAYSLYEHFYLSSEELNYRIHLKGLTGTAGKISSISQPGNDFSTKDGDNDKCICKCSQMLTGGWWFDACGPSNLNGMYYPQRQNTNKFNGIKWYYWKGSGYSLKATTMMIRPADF

T4: human VEGFA-121-His (human, UniProt P15692 181-395)
T4 construct: Prepared in-house; not shown: His tag
T4 sequence: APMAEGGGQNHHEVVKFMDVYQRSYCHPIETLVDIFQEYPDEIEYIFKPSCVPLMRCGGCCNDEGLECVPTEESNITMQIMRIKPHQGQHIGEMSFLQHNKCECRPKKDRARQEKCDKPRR


Key:
human VEGFA-121 = target: T1, human VEGFA-121; test: SPR, Fab captured by anti-Fab antibody; 1) VEGFA-121 alone, then buffer; final signal in % of the sum of the single signals
Experimental: The bispecific Fab was captured by injecting a 6.5 μg/ml solution for 60 sec at a flow of 5 μl/min. Independent binding of each ligand to the bispecific Fab was analysed by determining the active binding capacity for each ligand, either added sequentially or simultaneously (flow of 10 μl/min): [0359] […] [0360] 2) Injection of human Ang2 with a concentration of 5 μg/ml for 60 sec (identifies single binding of the antigen) [0361] […] [0362] […] [0363]
Independent binding of candidate antibodies to human VEGF-A and human ANG2 was analysed by SPR as described above in the “Materials & general methods” section.

human Ang2-RBD [1] = target: T2, human Ang2-RBD; test: SPR, Fab captured by anti-Fab antibody, Ang2-RBD injected, 25 C, 1:1 fit
Experimental: (§1) An anti-Fab capturing antibody (GE Healthcare 28958325) was immobilized to a Series S Sensor Chip C1 (GE Healthcare BR100535) using standard amine coupling chemistry resulting in a surface density of approximately 800 resonance units (RU). As running and dilution buffer, HBS-P+ (10 mM HEPES, 150 mM NaCl pH 7.4, 0.05% Surfactant P20) was used, the temperature of measurement was 25° C. The tested antibody was captured by injecting a 50 nM solution for 60 sec at a flow of 5 μl/min. Association was measured by injection of human Ang2-RBD in various concentrations in solution for 180 sec at a flow of 30 μl/min (0.07 nM-50 nM, 1:3 dilution). The dissociation phase was monitored for up to 900 sec and triggered by switching from the sample solution to running buffer at a flow rate of 30 μl/min. The surface was regenerated by injection of 10 mM Glycine pH 2.1 for 60 s at a flow rate of 30 μl/min. Bulk refractive index differences were corrected by subtracting blank injections and by subtracting the response obtained from the reference flow cell without captured tested antibody. Curve fitting was performed using the 1:1 Langmuir binding model within the Biacore® evaluation software.
(§2) Binding kinetics to human VEGF-A and human ANG2 for the candidate antibodies were assessed as described above using the indicated Fab fragments (amino acid sequence as illustrated in Table 4).

human Ang2-RBD-muFc = target: T3, human Ang2-RBD-muFc; test: KinExA equilibrium titration in solution, constant Ang2-RBD-muFc
Experimental: All KinExA® experiments were performed at room temperature (RT) using PBS pH 7.4 with 0.01% BSA and 0.01% Tween® 20 (BioRad, #161-0781) as running buffer. […] A flow rate of 0.25 ml/min was used. A constant amount of Ang2-RBD-muFc (50 pM and in a second experiment 500 pM) was titrated with tested antibody by twofold serial dilution starting at 4 nM (concentration range 1.95 pM-4000 pM). Antigen-antibody complexes were incubated at RT for at least 8 h to allow equilibrium to be reached. Equilibrated mixtures were then drawn through a column of Anti-Ang2 antibody (MAB098) coupled beads in the KinExA® system at a volume of 750 μl for 50 pM constant Ang2 and at a volume of 188 μl for 500 pM constant Ang2 permitting unbound Ang2 to be captured by the beads without perturbing the equilibrium state of the solution. Bound Ang2 was detected using a second biotinylated anti-Ang2 antibody (BAM0981) with a concentration of 250 ng/ml and following by an injection of 250 ng/ml Streptavidin Alexa Fluor™ 647 conjugate in sample buffer. Each sample was measured in duplicates for all equilibrium experiments. The KD was obtained from non-linear regression analysis of the data using a one-site homogeneous binding model contained within the KinExA® software (Version 4.0.11) using the “standard analysis” method. The software calculates the KD and determines the 95% confidence interval by fitting the data points to a theoretical KD curve. The 95% confidence interval is given as KD low and KD high.

human Ang2-RBD [2] = target: T2, human Ang2-RBD; test: SPR, Fab captured by anti-Fab antibody, Ang2-RBD injected, 25 C
Experimental: as §1, §2

human VEGFA-121-His [3] = target: T4, human VEGFA-121-His; test: SPR, VEGF-A121-His captured by anti-His antibody, Fab injected, single cycle kinetics
Experimental: (§3) An anti-His capturing antibody (GE Healthcare 28995056) was immobilized to a Series S Sensor Chip C1 (GE Healthcare BR100535) using standard amine coupling chemistry resulting in a surface density of approximately 600 resonance units (RU). As running and dilution buffer, HBS-P+ (10 mM HEPES, 150 mM NaCl pH 7.4, 0.05% Surfactant P20) was used. […] A dilution series of the tested antibody (3.7-300 nM, 1:3 dilution) was successively injected for 60 s each, dissociation was monitored for 3600 s at a flow rate of 30 μl/min (single cycle kinetics). The surface was regenerated by injecting 10 mM Glycine pH 1.5 for 60 s at a flow of 5 μl/min. […] Curve fitting was performed using the 1:1 Langmuir binding model within the Biacore® evaluation software.
as §2

human VEGFA-121-His [4] = target: T4, human VEGFA-121-His; test: SPR, VEGF-A121-His captured by anti-His antibody, Fab injected, single cycle kinetics; marked outside of Biacore specification
Experimental: as §3, §2

Signal [%] (human VEGFA-121) | Kd (human Ang2-RBD [1]) [pM] | koff (human Ang2-RBD [1]) [s⁻¹] | kon (human Ang2-RBD [1]) [M⁻¹ s⁻¹] | Kd (human Ang2-RBD-muFc) [pM] | t1/2 (human Ang2-RBD [2]) [h] | t1/2 (human VEGFA-121-His [3]) [h] | Kd (human VEGFA-121-His [4]) [pM] | koff (human VEGFA-121-His [4]) [s⁻¹] | Binder
50 | 19 | 0.000106 | 5.51e+06 | 2.75 | 1.82 | 23.3 | 11 | 8.27e-06 | bispecific anti-VEGF-A/anti-ANG2 Fab fragment P1AA0902 (Fab, V domains shown, Bispecific Fab with two paratopes in one VH/VL pair) VH: DDHLVESGGGLVKPGGSLRLSCATADFFEYDDMSWVRQAPGKGLEWVGSISGRGDHKYLNTKFIGRFTISRDDSKNTLYLQMNSLRAEDTAVYYCARDVGFFDWWGQGTLVTVSS VL: AIYMHQEPSSLSASVGDRVTITCHGSYWLNSELAWYQQKPGKAPKLLIFDGDFKVFDVPSRFSGSGSHEDYTLTISSLQPEDFATYYCQQYRYHPYTFGHGTKVEIKR
50 | 4550 | 0.032 | 7.03e+06 | 7180 | 0.00667 | 42.5 | 3 | 4.53e-06 | bispecific anti-VEGF-A/anti-ANG2 Fab fragment P1AA8906 (Fab, V domains shown, Bispecific Fab with two paratopes in one VH/VL pair (DutaFab); CH1 and Ckappa) VH: DFQLVESGGGLVKPGGSLRLSCAASYEFEYDDMSWVRQAPGKGLEWVGSISPKGGSTYYNTKFIGRFTISRDNSKNTLYLQMNSLRAEDTAVYYCARDVGFFDMWGQGTLVTVSS VL: AIYMHQEPSSLSASVGDRVTITCHGSYWLSNYLAWYQQKPGKAPKLLIFDARWLVHGVPSRFSGSGSHEDYTLTISSLQPEDFATYYCQQYRYHPYTFGHGTKVEIKR
50 | 8 | 5.78e-05 | 7.43e+06 | 1.72 | 3.33 | 33.1 | 8 |  | bispecific anti-VEGF-A/anti-ANG2 Fab fragment P1AD9820 (Fab, V domains shown, Bispecific Fab with two paratopes in one VH/VL pair; also called P1AD9820 Fab) VH: SEHLVESGGGLVKPGGSLRLSCATADFFEYDDMSWVRQAPGKGLEWVGSISPKGDHKYLNTKFIGRFTISRDDSKNTLYLQMNSLRAEDTAVYYCARDVGFFDWWGQGTLVTVSS VL: AIYMHQEPSSLSASVGDRVTITCHGSYWLNSEVAWYQQKPGKAPKLLIFDGDFKVYEVPSRFSGSGSHEDYTLTISSLQPEDFATYYCQQYRYHPYTFGHGTKVEIKR
